Reference: the Immune Epitope Database (IEDB)

Assays:
Assay in all cases: IEDB peptide-MHC binding, purified MHC/competitive/radioactivity; ≥ and ≤ were set here for values at or beyond the usual limits of such assays
Details in all cases: source organism: Bordetella pertussis
HLA-B*44:03 = molecular target: HLA-B*44:03
HLA-B*35:01 = molecular target: HLA-B*35:01
HLA-B*53:01 = molecular target: HLA-B*53:01
HLA-A*02:01 = molecular target: HLA-A*02:01
HLA-B*07:02 = molecular target: HLA-B*07:02
HLA-B*57:01 = molecular target: HLA-B*57:01

Q: Which IC50 (HLA-B*44:03) does the source give for DENGKPQTY here?
A: 11.5 µM

Q: How did the IC50 (HLA-B*35:01) turn out when TPLGSLFAI was run?
A: 1.34 µM

Q: What about the IC50 (HLA-B*53:01) of the same sequence?
A: 8.19 µM

Q: YEYIWGLYP was tested. Which IC50 (HLA-B*44:03) did it give?
A: 8.39 µM

Q: Which IC50 (HLA-A*02:01) does the source give for AGLAGPSAV here?
A: ≥ 78.1 µM

Q: Which IC50 (HLA-B*53:01) does the source give for FAISAYALK here?
A: 4.42 µM

Q: With DAKHDLTVT as the sequence, how does the IC50 (HLA-B*35:01) read?
A: 69.9 µM

Q: How did the IC50 (HLA-B*07:02) turn out when YATNPQTQL was run?
A: 69.6 µM

Q: Which IC50 (HLA-B*44:03) does the source give for YEYSKGPKL here?
A: 47.7 µM

Q: With KEDVDAAQI as the sequence, how does the IC50 (HLA-B*44:03) read?
A: 34.2 µM

Q: How did the IC50 (HLA-A*02:01) turn out when QSIVEAPEL was run?
A: 46 µM

Q: AESNALSKR was tested. Which IC50 (HLA-B*44:03) did it give?
A: 44.2 µM

Q: Which IC50 (HLA-B*57:01) does the source give for KAGTIAAPW here?
A: 0.297 µM

Q: GLDVQQGTV was tested. Which IC50 (HLA-A*02:01) did it give?
A: 60 µM

Q: How did the IC50 (HLA-B*53:01) turn out when TGDGGGHTD was run?
A: 69.9 µM

Q: LAAVLVNPH was tested. Which IC50 (HLA-B*35:01) did it give?
A: 69.9 µM

Q: With FALYDGTYL as the sequence, how does the IC50 (HLA-B*35:01) read?
A: 20.9 µM
